The nanobody polyreactivity screen of Harvey et al. (2022)

Test: yeast display, Sf9 membrane polyspecificity reagent, FACS + sequencing; frameworks hold sequencing errors
In short: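 Synthetic nanobody libraries on Saccharomyces cerevisiae BJ5465 were galactose-induced for 36–48 hours, stained 1 hour at 4 °C with 10% biotinylated, detergent-solubilized Sf9 membrane reagent and enriched on streptavidin microbeads. FACS then separated cells into low and high (top ~1%) gates by anti-HA (expression) and streptavidin (reagent binding) fluorescence. Genes were colony-PCR amplified, MiSeq 2 × 250 sequenced and CDR-length filtered. A clone's polyreactivity label is that of its gate of origin.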

Sequence | polyreactivity (PSR sort gate)
QVQLVESGGGLVQAGGSLRLSCAASGFTFGYYALGWYRQAPGKERELVAAINYSGGSTYYADSVKGRFTISRDNAKNTVYLQMNSLKPEDTAVYYCAAQSYYGRGYWGQGTQVTVSS | high polyreactivity
QVQLVESGGGLVQAGGSLRLSCAASGIIFNGYAMGWYRQAPGKERELVAAISSSGGRTYYADSVKGRFTISRDNAKNTVYLQMNSLKPEDTAVYYCAADAAGSRVYPYDYWGQGTQVTVSS | high polyreactivity
QVQLVESGGGLVQAGGSLRLSCAASGRIFTGNAMGWYRQAPGKERELVASITYSDGSTYYADSVKGRFTISRDNAKNTVYFQMNSLKPEDTAVYYCAADILWGQGTQVTVSS | low polyreactivity
QVQLVESGGGLVQAGGSLRLSCAASGSIFTAYDMGWYRQAPGKERELVAAINVSAGTTYYADSVKGRFTISRDNAKNTVYLQMNSLKPEDTAVYYCAATFGGWGYVYVHYYYWGQGTQVTVSS | high polyreactivity
QVQLVESGGGLVQAGGSLRLSCAASGYTCGPYAMGWYRQAPGKERELVAAITTRGGSTYYADSVKGRFTISRDNAKNTVYLQMNSLKPEDTAVYYCAAVVNSKSIQRVVRYYYWGQGTQVTVSS | high polyreactivity
QVQLGESGGGLVQAGGSLRLSCAASGRTFGLKAMGWYRQAPGKERELVAAINWRGTSTYYADSVKGRFTISRDNAKNTVYLQMNSLKPEDTAVYYCAARRSVGGYGYWGQGTQVTVSS | high polyreactivity
QVQHVESGGGLVQAGGSLRLSCAASGFTYVVYDMGWYRPAPGKERELVAVITNSGGSTYYADSEKGRFTISRDNAKNTVYLQMNSLKPEDTAVYYCNTENFYGSDIFDSWGQGTQVTVSS | low polyreactivity
QVQLVESGGGLVHAGGSLRLSCAASGSTFFPYDMGWYRPEPGTERYFVAGISSDGGTSYADSVKGRFTISRDNAKNTVYLQMNSMKPEDTAVYDCAALQADGDRYPEFDLMDYWGQGSQVTVSS | low polyreactivity
QVQLVETGGRLVQAGGSLRLSCAASGFTFHQYTMGWYRQAPGKESELVAAITGTGDTYYADSVKGRFTISRDNAKNTVNLQMNSLKPEDTAVYYCAADWVTYWYYKGFYYWGQGTQVTVSS | high polyreactivity
QVQLVESGGGLVQAGGSHRLSCAASGITFRRNTMGWYRQAPGKERELVATISWRGGNTFYADSVKGRFTFSRDNAKNTVYLQMNSLKPEDTAVYYCNARGYGTLIVRRERMDYWGQGTQVTVSS | high polyreactivity
QVQLVESGGGLVQAGGSLRLSCAASGYTFSAYAMGWYRQAPGKERELVAVINRSGVRTYYADSVKGRFTISRDNAKNTVYLQMNSLKPEDTAVYYCAADYRNTVLEMDYWGQGTQVTVSS | high polyreactivity
QVQLVESGGGLVQAGGSLRLSCAASGRTYKINAMGCYRQAPGKERELVASISRTGGTTYYADSVKGRFTNSRDNAKNTVYLQMNSLNPEDTAVYYCAVSDFGLLDCLTIYDEYDYWGQGTQVTVSS | high polyreactivity
QVQLVESGGGLLQAGGSLRLSCAASGLIFGYYAMGWYRQAPGKERELVGAITSSGTSTYYADSVKGRFTISRDNAKNTVYLQMNSLKPEDTAVYYCAAQYIGKKRFNYWGQGTQVTVSS | high polyreactivity
QVQLVESGGGLVQAGGSLRLSCAASGSTFTEYAMGWYRQAPGKERELVAGISSDGSTKYADSVKGRFTISRDNAKNTVYLQMNSLKPEDTAVYYCNKDQSYAKYDYWGQGTQVTVSS | low polyreactivity
QVQLVESGGGLVQAGGSRRLSCAASGLIYWYAMGWYRQAPGKERELVAAISSNGGSTYYADSVKGRFTISRDNAKNTVYLQMNSLKPEDTAVYYCAVTSFGYSVLERDYWGQGTQVTVSS | low polyreactivity
QVQLVESCGGLVQAGGSLRLSCAASGLTFYQNDMGWYRQAPGKERELVAAITLSGDITYYADSVKGRFTISRDNAKNTVYLQMNSLKPEDTAVYYCAADGYLLYVQHPNGRRYDYWGQGTQVTVSS | low polyreactivity
QVQLVESGGGLVQAGGSLRLSCAASGYTLGPNTMGWYRQAPGKERELVATITYSGGSTYYADSVKGRFTISRDNAKNTVYLQMNSLKPEDTAVYYCAARYGSRRIPGSLGYWGQGTQVTVSS | high polyreactivity
QVQLVESGGGLVQAGGSLRLSCAASGFIFHGYALGWYRQAPGKERELVAAITRRGGRTDYADSVKGRFTISRDNAKNTVYLQMNSLKPEDTAVYYCAKRYTATEWHGERDYWGQGTQVTVSS | high polyreactivity
QVQLVESGGGLGQAGASLRLSSAATGFTFRPNAMGWYRQAPGKERELVAAISWRGTRTSYADSVKGRFTISRDNAKNTVYLQMNSLKPEDTAVYSCAARLVRRYDYDYWGQGTQVTVSS | high polyreactivity
QDQLVDSGGGLVKAGGNLRLSCPASGSTFDYNTMGWNIQEPGKESEMVAVITASGGSTYYADSVKGRFTISRDNAKNTVYLQMNSLKPEDTAVYYCAKDLYVSYYIGTCYYYWGQGTQVTVSS | low polyreactivity
QVQLVESGGGLVQAGGSLRLSCAASGRIVSGYAMVWYRQAPGKERELVAAITSGGSTNYADSVKGRFTLSRDNAKNTVYLQMNSLKPEDTAVYYCAADSREVSTTAYYYWGQGTQVTVSS | low polyreactivity
QVQLVESGRGLVQAGGSLRLSCAASGRTFRAYAMGWYRQAPGKERELVAAISSRGGSTYYADSVKGRFTISRDNAKNTVYFQMNSLKPEDTAVYYCNVDRYVRGLITFDYWGQGTQVTVSS | high polyreactivity
QVQLVESWGGLVQAGGRLRLSCAASGNTFWDNAMRWYRQAPGKERELVAAIRWSTVSTHYADSVKGRFTISRDNAKNTVYLQMNSLKPEDTAVYDCAATAYYYYRDKYYGYDYWGQGTHVTVSS | low polyreactivity
QVQRVESGGGLVQAGGSLRLSCSASGFIFQLSAMGWYRQAPGTERELVAAITWRGGSTYYADSVKGRFTISRDNAKNTVYLQMYSLKPEDTAVYYCAASASWRGQRVPYGYWGQGTQVTVSS | high polyreactivity
QVQLVESGGGLVQAGGSLRLSCAASGRIFQAYAMGWYRQAPGKERELVASISYRGGITYYADSVKGRFTISRDNAKNTVYLQMNSLKPEDTAVYYCAAGRKGSMYYWGQGTQVTVSS | high polyreactivity
QVQLVESGGGLVQAGGSLRLSCAASGRTFVTYAMGWYRQAPGKERELVAGISRRGGRTYYADSVKGRFTISRDNAKNTVYLQMNSLKPEDTAVYYCAAYDRITRYDYWGQGTQVTVSS | high polyreactivity
QVQLVESGGGLVQAGGSLRLSCAASGSTFDYYAMGWYRQAPGKERELVAAISRSGGRTYYADSVKGRFTISRDNAKNTVYLQMNSLKPEDTAVYYCAADKPVIGTYSRYDYWGQGTQVTVSS | high polyreactivity
QVQLVESGGGLVQAGGSLRLSCAASGSTFGYYAMGWYRQAPGKERELVAVITSGGSTYYADSVKGRFTISRDNAKNTVFLQMNSLKPEDTAVYYCYARVQAVHYGYWGQGTQVTVSS | high polyreactivity
QVQLVESGGGLVQAGGSLRLSCAASGSTFNPYAMGWYRQAPGKERELVAAITWSSDDTYYADSVKGRFTISRDNAKNTVYLQMNSLKPEDTAVYYCAATTVTQWYTITVAYGYWGQGTQVTVSS | low polyreactivity
QVQLVESGGGLVQAGGSLRLSCAASGSTFRQYAMGWYRQAPGKERELVAAISSSGSTTYYADSVKGRFTISRDNAKNTVYLQMNSLKPEDTAVYYCAAEYTFHYDYWGQGTQVTVSS | low polyreactivity
